Measured values from patent US20050037969A1 (ARBOR VITA, published 2005).
Ends that are not written are not given here. * marks the point of attachment. Biotin = O=C1N[C@H]2[C@H](CS[C@H]2CCCCC(=O)*)N1

T1: TAX-IP2L PDZ-GST fusion protein (Homo sapiens (Human), UniProt Q8TF64 107-197)
T1 construct: Order of GST and PDZ part and limits not seen in the excerpts
T1 sequence: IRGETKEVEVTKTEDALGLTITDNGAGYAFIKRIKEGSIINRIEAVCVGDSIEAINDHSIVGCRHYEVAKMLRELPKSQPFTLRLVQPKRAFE

T2: GST-TAX-IP43 PDZ domain fusion protein (human, UniProt Q13884 109-180)
T2 construct: also called TAX43; not shown: glutathione S-transferase encoded by vector pGEX-3X (Pharmacia)
T2 sequence: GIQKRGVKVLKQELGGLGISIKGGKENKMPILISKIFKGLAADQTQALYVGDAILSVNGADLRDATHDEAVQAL

T3: GEF PDZ-GST fusion protein (Homo sapiens (Human), UniProt Q8TEU7 293-400)
T3 construct: The label GEF is not explained in the excerpts
T3 sequence: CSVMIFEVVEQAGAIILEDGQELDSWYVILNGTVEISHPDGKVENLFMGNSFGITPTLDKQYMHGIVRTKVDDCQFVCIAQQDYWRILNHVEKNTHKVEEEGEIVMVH

T4: TAX-IP33 PDZ-GST fusion protein (Homo sapiens (Human), UniProt O14910 103-193)
T4 construct: Order of GST and PDZ part and limits not seen in the excerpts
T4 sequence: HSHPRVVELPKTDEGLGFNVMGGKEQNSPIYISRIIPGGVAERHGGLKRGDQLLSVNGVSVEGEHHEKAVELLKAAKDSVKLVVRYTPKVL

T5: GST-DVL1 PDZ domain fusion protein (human, UniProt O14640 247-339)
T5 construct: also called human dishevelled segment polarity protein homolog; not shown: glutathione S-transferase encoded by vector pGEX-3X (Pharmacia)
T5 sequence: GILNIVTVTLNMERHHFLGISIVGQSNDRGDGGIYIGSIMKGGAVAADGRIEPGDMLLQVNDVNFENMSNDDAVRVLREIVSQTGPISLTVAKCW

T6: GST-PTN-4 PDZ domain fusion protein (Homo sapiens (Human), UniProt P29074 517-605)
T6 construct: also called protein-tyrosine phosphatase meg1; not shown: glutathione S-transferase encoded by vector pGEX-3X (Pharmacia)
T6 sequence: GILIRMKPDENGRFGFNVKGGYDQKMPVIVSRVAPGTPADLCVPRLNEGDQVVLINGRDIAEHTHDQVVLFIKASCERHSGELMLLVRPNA

T7: GST-CASK PDZ domain fusion protein (Homo sapiens, UniProt O14936 486-575)
T7 construct: also called Homo sapiens CASK protein
T7 sequence: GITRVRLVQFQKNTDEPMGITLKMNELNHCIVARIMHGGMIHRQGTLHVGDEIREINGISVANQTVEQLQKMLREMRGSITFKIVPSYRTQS

T8: KIAA0807 (PDZ domain)-GST fusion protein (human, UniProt Q6P0Q8 1104-1192)
T8 construct: also called K807; KIAA807; not shown: glutathione S-transferase encoded by vector pGEX-3X (Pharmacia)
T8 sequence: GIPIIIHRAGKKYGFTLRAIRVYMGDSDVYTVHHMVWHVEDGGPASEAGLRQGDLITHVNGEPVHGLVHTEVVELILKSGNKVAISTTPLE

T9: SP short PDZ-GST fusion protein (Homo sapiens (Human), UniProt O43464 350-435)
T9 construct: The label SP short is not explained in the excerpts
T9 sequence: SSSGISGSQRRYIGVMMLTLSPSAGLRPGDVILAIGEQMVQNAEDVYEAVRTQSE

T10: GST-KIAA0303 PDZ domain fusion protein (Homo sapiens (Human), UniProt O15021 1138-1228)
T10 construct: also called K303; not shown: glutathione S-transferase encoded by vector pGEX-3X (Pharmacia)
T10 sequence: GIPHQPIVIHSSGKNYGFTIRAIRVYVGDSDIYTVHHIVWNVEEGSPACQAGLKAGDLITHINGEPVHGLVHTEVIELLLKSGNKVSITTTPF

T11: GST-DLG5 (p-dlg) PDZ domain fusion protein (Human, UniProt Q8TDM6 1343-1583)
T11 construct: also called Human discs large protein p-dlg; not shown: glutathione S-transferase encoded by vector pGEX-3X (Pharmacia)
T11 sequence: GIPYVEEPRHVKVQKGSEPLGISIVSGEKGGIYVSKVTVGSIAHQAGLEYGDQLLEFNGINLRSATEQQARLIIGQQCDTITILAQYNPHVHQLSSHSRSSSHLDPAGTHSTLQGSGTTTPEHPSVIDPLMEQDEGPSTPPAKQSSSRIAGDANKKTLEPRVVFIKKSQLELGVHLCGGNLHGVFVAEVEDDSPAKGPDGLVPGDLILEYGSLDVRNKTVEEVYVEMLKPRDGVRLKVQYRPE

T12: GST-mouse syntenin fusion protein (Mus musculus, UniProt O08992 108-286)
T12 construct: also called Mus musculus Syntenin; not shown: glutathione S-transferase encoded by vector pGEX-3X (Pharmacia)
T12 chain: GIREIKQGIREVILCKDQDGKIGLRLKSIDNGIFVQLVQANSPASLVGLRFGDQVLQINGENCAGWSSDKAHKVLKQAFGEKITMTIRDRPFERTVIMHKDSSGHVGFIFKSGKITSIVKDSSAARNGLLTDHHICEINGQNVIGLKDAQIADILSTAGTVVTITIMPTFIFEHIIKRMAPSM

T13: K559 PDZ-GST fusion protein (Homo sapiens (Human), UniProt Q9Y6V0 4489-4593)
T13 construct: Order of GST and PDZ part and limits not seen in the excerpts
T13 sequence: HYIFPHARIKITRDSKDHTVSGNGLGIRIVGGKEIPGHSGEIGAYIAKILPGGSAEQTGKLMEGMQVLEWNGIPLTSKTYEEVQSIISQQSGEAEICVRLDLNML

T14: MINT3 PDZ-GST fusion protein
T14 construct: Order of GST and PDZ part and limits not seen in the excerpts
T14 chain: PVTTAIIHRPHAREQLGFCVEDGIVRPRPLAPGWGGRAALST


What follows are binders tested against T1, TAX-IP2L PDZ-GST fusion protein (assay: A/G assays).
Biotin-PYGTAMEKAQLKPPATSDA (also called CD49E (alpha-4)) [CD49E C-terminal peptide AA11L, biotinylated]: no binding.

These binders were tested against T2, GST-TAX-IP43 PDZ domain fusion protein (assay: A/G assays).
Biotin-PYGTAMEKAQLKPPATSDA (also called CD49E (alpha-4)) [CD49E C-terminal peptide AA11L, biotinylated]: no binding.

What follows are binders tested against T3, GEF PDZ-GST fusion protein (assay: A/G assays).
Biotin-PYGTAMEKAQLKPPATSDA (also called CD49E (alpha-4)) [CD49E C-terminal peptide AA11L, biotinylated]: no binding.

These binders were tested against T4, TAX-IP33 PDZ-GST fusion protein (assay: A/G assays).
Biotin-PYGTAMEKAQLKPPATSDA (also called CD49E (alpha-4)) [CD49E C-terminal peptide AA11L, biotinylated]: no binding.

What follows are binders tested against T5, GST-DVL1 PDZ domain fusion protein (assay: A/G assays).
Biotin-PYGTAMEKAQLKPPATSDA (also called CD49E (alpha-4)) [CD49E C-terminal peptide AA11L, biotinylated]: no binding.

The binders below were run against T15, PICK1 PDZ-GST fusion protein (Bos taurus (Bovine), UniProt Q2T9M1 17-105) (assay: A/G assays).
T15 construct: Order of GST and PDZ part and limits not seen in the excerpts
T15 sequence (Q2T9M1 other isoform, or with tags, fused parts or gaps limits assumed): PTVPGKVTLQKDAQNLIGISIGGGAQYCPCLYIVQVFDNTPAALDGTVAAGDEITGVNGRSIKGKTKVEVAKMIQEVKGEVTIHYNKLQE
Biotin-PYGTAMEKAQLKPPATSDA (also called CD49E (alpha-4)) [CD49E C-terminal peptide AA11L, biotinylated]: no binding.

The binders below were run against T6, GST-PTN-4 PDZ domain fusion protein (assay: A/G assays).
Biotin-PYGTAMEKAQLKPPATSDA (also called CD49E (alpha-4)) [CD49E C-terminal peptide AA11L, biotinylated]: no binding.

Each binder was assayed against T7, GST-CASK PDZ domain fusion protein (assay: A/G assays).
Biotin-PYGTAMEKAQLKPPATSDA (also called CD49E (alpha-4)) [CD49E C-terminal peptide AA11L, biotinylated]: no binding.

What follows are binders tested against T8, KIAA0807 (PDZ domain)-GST fusion protein (assay: A/G assays).
Biotin-PYGTAMEKAQLKPPATSDA (also called CD49E (alpha-4)) [CD49E C-terminal peptide AA11L, biotinylated]: no binding.

What follows are binders tested against T16, K316 PDZ-GST fusion protein (Homo sapiens (Human), UniProt Q14CM0 72-159) (assay: A/G assays).
T16 construct: Order of GST and PDZ part and limits not seen in the excerpts
T16 sequence (Q14CM0 72-159 limits assumed): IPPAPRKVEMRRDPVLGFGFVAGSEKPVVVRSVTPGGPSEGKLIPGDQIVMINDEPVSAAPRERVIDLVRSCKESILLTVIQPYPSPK
Biotin-PYGTAMEKAQLKPPATSDA (also called CD49E (alpha-4)) [CD49E C-terminal peptide AA11L, biotinylated]: no binding.

What follows are binders tested against T9, SP short PDZ-GST fusion protein (assay: A/G assays).
Biotin-PYGTAMEKAQLKPPATSDA (also called CD49E (alpha-4)) [CD49E C-terminal peptide AA11L, biotinylated]: no binding.

These binders were tested against T17, NOS1 PDZ-GST fusion protein (Homo sapiens (Human), UniProt P29475 11-100) (assay: A/G assays).
T17 construct: Order of GST and PDZ part and limits not seen in the excerpts
T17 sequence (P29475 11-100 limits assumed): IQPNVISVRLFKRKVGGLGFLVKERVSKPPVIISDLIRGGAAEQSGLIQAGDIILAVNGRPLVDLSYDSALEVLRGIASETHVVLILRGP
Biotin-PYGTAMEKAQLKPPATSDA (also called CD49E (alpha-4)) [CD49E C-terminal peptide AA11L, biotinylated]: no binding.

The binders below were run against T10, GST-KIAA0303 PDZ domain fusion protein (assay: A/G assays).
Biotin-PYGTAMEKAQLKPPATSDA (also called CD49E (alpha-4)) [CD49E C-terminal peptide AA11L, biotinylated]: no binding.

Each binder was assayed against T11, GST-DLG5 (p-dlg) PDZ domain fusion … (assay: A/G assays).
Biotin-PYGTAMEKAQLKPPATSDA (also called CD49E (alpha-4)) [CD49E C-terminal peptide AA11L, biotinylated]: no binding.

Target: T12, GST-mouse syntenin fusion protein
Assay: A/G assays
Biotin-PYGTAMEKAQLKPPATSDA (also called CD49E (alpha-4)) [CD49E C-terminal peptide AA11L, biotinylated]: no binding.

The binders below were run against T13, K559 PDZ-GST fusion protein (assay: A/G assays).
Biotin-PYGTAMEKAQLKPPATSDA (also called CD49E (alpha-4)) [CD49E C-terminal peptide AA11L, biotinylated]: no binding.

Target: T14, MINT3 PDZ-GST fusion protein
Assay: A/G assays
Biotin-PYGTAMEKAQLKPPATSDA (also called CD49E (alpha-4)) [CD49E C-terminal peptide AA11L, biotinylated]: no binding.
